B1: Hairpin Ribozyme (parent)
chain: GUCCUCUUUCACGUGCGCGUGAAAGAGAGAAGUGAACCAGAGAAACACACGUUGUGGUAUAUUACCUGGUA

Variants of: B1
Assay: self-cleavage, relative activity (ratio to wild type); higher = more cleavage; co-transcriptional

Variant | self-cleavage
GUCCUCUUUCACGUGCGCGUGAAAGAGAGAAGUGAACCAGAGAAACACACGUUGUGCUAUAUUAGCUGGUA | 0.154
GUCCUCUUUCACGUGCGCGUGAAAGAGAGAAGUGAACCAGAGAAACACACGUUGUGCUAUAUUGCCUGGUA | 0.126
GUCCUCUUUCACGUGCGCGUGAAAGAGAGAAGUGAACCAGAGAAACACACGUUGUGUUAUAUUACCUAGUA | 0.188
GUCCUCUUUCACGUGCGCGUGAAAGAGAGAAGUGAACCAGAGAAACACACGUUGUGUUAUAUUACCUCGUA | 0.211
GUCCUCUUUCACGUGCGCGUGAAAGAGAGAAGUGAACCAGAGAAACACACGUUGUGCUACAUUACCUGGUA | 0.156
GUCCUCUUUCACGUGCGCGUGAAAGAGAGAAGUGAACCAGAGAAACACACGUUGUGCUAUAUGACCUGGUA | 0.18
GUCCUCUUUCACGUGCGCGUGAAAGAGAGAAGUGAACCAGAGAAACACACGUUGUGUUUUAUUACCUGGUA | 0.411
GUCCUCUUUCACGUGCGCGUGAAAGAGAGAAGUGAACCAGAGAAACACACGUUGUGUUAUAUUACCUGGUG | 0.254
GUCCUCUUUCACGUGCGCGUGAAAGAGAGAAGUGAACCAGAGAAACACACGUUGUGAUAUAUUACCUGUUA | 0.121
GUCCUCUUUCACGUGCGCGUGAAAGAGAGAAGUGAACCAGAGAAACACACGUUGUGAUAUAUUACCUGCUA | 0.141
GUCCUCUUUCACGUGCGCGUGAAAGAGAGAAGUGAACCAGAGAAACACACGUUGUGAUAUAUUACCGGGUA | 0.191
GUCCUCUUUCACGUGCGCGUGAAAGAGAGAAGUGAACCAGAGAAACACACGUUGUGAUAUAUUACCCGGUA | 0.123
GUCCUCUUUCACGUGCGCGUGAAAGAGAGAAGUGAACCAGAGAAACACACGUUGUGCUAUGUUACCUGGUA | 0.0894
GUCCUCUUUCACGUGCGCGUGAAAGAGAGAAGUGAACCAGAGAAACACACGUUGUGCUAUAUUACAUGGUA | 0.15
GUCCUCUUUCACGUGCGCGUGAAAGAGAGAAGUGAACCAGAGAAACACACGUUGUGCUAUAUUACCUGGUU | 0.157
GUCCUCUUUCACGUGCGCGUGAAAGAGAGAAGUGAACCAGAGAAACACACGUUGUGCUAUAUUACCUGGUG | 0.201
GUCCUCUUUCACGUGCGCGUGAAAGAGAGAAGUGAACCAGAGAAACACACGUUGUGCUAUAUUACCUGGUC | 0.356
GUCCUCUUUCACGUGCGCGUGAAAGAGAGAAGUGAACCAGAGAAACACACGUUGUGCUAUAUUACCUGGGA | 0.119
GUCCUCUUUCACGUGCGCGUGAAAGAGAGAAGUGAACCAGAGAAACACACGUUGUGAUAUAUUACCUCGUA | 0.207

Variant | self-cleavage
GUCCUCUUUCACGUGCGCGUGAAAGAGAGAAGUGAACCAGAGAAACACACGUUGUGAUAUAUUACCUUGUA | 0.169
GUCCUCUUUCACGUGCGCGUGAAAGAGAGAAGUGAACCAGAGAAACACACGUUGUGUUAUCUUACCUGGUA | 0.0714
GUCCUCUUUCACGUGCGCGUGAAAGAGAGAAGUGAACCAGAGAAACACACGUUGUGAAAUAUUACCUGGUA | 0.169
GUCCUCUUUCACGUGCGCGUGAAAGAGAGAAGUGAACCAGAGAAACACACGUUGUGACAUAUUACCUGGUA | 0.21
GUCCUCUUUCACGUGCGCGUGAAAGAGAGAAGUGAACCAGAGAAACACACGUUGUGAGAUAUUACCUGGUA | 0.123
GUCCUCUUUCACGUGCGCGUGAAAGAGAGAAGUGAACCAGAGAAACACACGUUGUGAUAUAUUACCUGGUC | 0.4
GUCCUCUUUCACGUGCGCGUGAAAGAGAGAAGUGAACCAGAGAAACACACGUUGUGAUAUAUUACCUGGUG | 0.112
GUCCUCUUUCACGUGCGCGUGAAAGAGAGAAGUGAACCAGAGAAACACACGUUGUGCUAUACUACCUGGUA | 0.15
GUCCUCUUUCACGUGCGCGUGAAAGAGAGAAGUGAACCAGAGAAACACACGUUGUGCUAUAAUACCUGGUA | 0.183
GUCCUCUUUCACGUGCGCGUGAAAGAGAGAAGUGAACCAGAGAAACACACGUUGUGAUAUAUUACUUGGUA | 0.2
GUCCUCUUUCACGUGCGCGUGAAAGAGAGAAGUGAACCAGAGAAACACACGUUGUGAUAUAUUACGUGGUA | 0.103
GUCCUCUUUCACGUGCGCGUGAAAGAGAGAAGUGAACCAGAGAAACACACGUUGUGCGAUAUUACCUGGUA | 0.277
GUCCUCUUUCACGUGCGCGUGAAAGAGAGAAGUGAACCAGAGAAACACACGUUGUGAUAGAUUACCUGGUA | 0.21
GUCCUCUUUCACGUGCGCGUGAAAGAGAGAAGUGAACCAGAGAAACACACGUUGUGUUAUAUUACGUGGUA | 0
GUCCUCUUUCACGUGCGCGUGAAAGAGAGAAGUGAACCAGAGAAACACACGUUGUGAUAUAUUAACUGGUA | 0.222
GUCCUCUUUCACGUGCGCGUGAAAGAGAGAAGUGAACCAGAGAAACACACGUUGUGAUAUAUUAGCUGGUA | 0.291
GUCCUCUUUCACGUGCGCGUGAAAGAGAGAAGUGAACCAGAGAAACACACGUUGUGAUAUAUUACCUGGAA | 0.134
GUCCUCUUUCACGUGCGCGUGAAAGAGAGAAGUGAACCAGAGAAACACACGUUGUGCUAUAUUACCUAGUA | 0.195
GUCCUCUUUCACGUGCGCGUGAAAGAGAGAAGUGAACCAGAGAAACACACGUUGUGCUAUAUUACCUCGUA | 0.21

From the RNAGym collection of RNA variant scans (doi:10.7554/elife.80360)
